In patent US20190142971A1, “FORMULATION AND DELIVERY OF MODIFIED NUCLEOSIDE, NUCLEOTIDE, AND NUCLEIC ACID COMPOSITIONS” (ModernaTX, Inc., priority 2013, published 2019):
Where two headings read alike, the source gives them in different places.

Legend:
[1] = system: peripheral blood mononuclear cells (PBMC); experiment: Example 56: percent modification, PBMC G-CSF ELISA (Table 85); type: cell-based, human; settings: 22 hours after transfection
Description: 480 ng of G-CSF mRNA modified with 5-methylcytosine (5mC) and pseudouridine (pseudoU) or unmodified G-CSF mRNA was transfected with 0.4 uL of Lipofectamine 2000 into peripheral blood mononuclear cells (PBMC) from three normal blood donors (D1, D2, and D3). […] The supernatant was harvested and run by ELISA 22 hours after transfection to determine the protein expression. The expression of IFN-alpha and TNF-alpha may be a secondary effect from the transfection of the G-CSF mRNA.

Balb-C mice = experiment: Example 108: luciferase mRNA IM with electroporation, total flux (Tables 174-176); type: in vivo; settings: PBS, IM 2.5 mg/kg
Description: The mice of Group 2 were treated with electroporation (EP) using the […]™ instrument (Harvard Apparatus/BTX®, Holliston, Mass.) immediately after administration of luciferase.
[…] Twenty minutes prior to imaging, the mice were injected intraperitoneally with a D-luciferin solution at 150 mg/kg. Animals were then anesthetized and images were acquired with an IVIS Lumina II imaging system (Perkin Elmer). Bioluminescence was measured as total flux (photons/second) of the entire mouse.

mice [2] = experiment: Example 41: IV lipoplexed G-CSF mRNA in mice, neutrophil count (Table 66); type: in vivo; settings: IV 10% lipoplex, 50 ug at days 0, 2, 4; day 5
Description: Neutrophils were measured at days 1, 5 and 8. Controls included non-specific mammalian RNA or the formulation buffer alone (F.Buffer). The mice were bled at days 1, 5 and 8 to determine the effect of mRNA-encoded human G-CSF to increase neutrophil count. The dosing regimen is shown in Table 66 as are the resulting neutrophil counts (thousands/uL; K/uL).

human PBMC = experiment: Example 45: PBMC transfection, IFN-alpha ELISA (Table 72); type: cell-based
Description: The plates were then incubated at 37 C.
Each condition was done in duplicate.
Shown in Tables 71 and 72 are the average from 2 separate PBMC donors of the G-CSF and IFN-alpha production over time as measured by specific ELISA.

[3] = system: peripheral blood mononuclear cells (PBMC); type: cell-based, human; settings: three human PBMC donors
Description: 500 ng of G-CSF mRNA modified with 5-methylcytosine (5mC) and pseudouridine (pseudoU) or unmodified G-CSF mRNA was transfected with 0.4 uL of Lipofectamine 2000 into peripheral blood mononuclear cells (PBMC) from three normal blood donors (D1, D2, and D3). […] The supernatant was harvested 6 hours and 18 hours after transfection and run by ELISA to determine the protein expression. The expression of G-CSF, IFN-alpha, and TNF-alpha for Donor 1 is shown in Table 88, Donor 2 is shown in Table 89 and Donor 3 is shown in Table 90.

mice [4] = settings: for Serum Concentration 8-12 hours after administration: G-CSF; for G-CSF Protein Expression, Conc: LNP IV, mice, 8 hrs
BJ fibroblasts = settings: for IFN-beta / IL-6: 250 ng transfected daily for 5 days

Molecule: Luciferase: luciferase mRNA, SEQ ID NO: 14, Cap1, fully modified with 5-methylcytosine and pseudouridine
- G-CSF Expression ([1]; PBMC donor D1, 480 ng mRNA): 90.2 pg/mL
- G-CSF Expression ([1]; PBMC donor D2, 480 ng mRNA): 0.0 pg/mL
- G-CSF Expression ([1]; PBMC donor D3, 480 ng mRNA): 22.1 pg/mL
- Total Flux (photons/s) (Balb-C mice; Group 1, no EP, 3 Hours): 2.57E+07 photons/s
- Total Flux (photons/s) (Balb-C mice; Group 1, no EP, 24 Hours): 3.81E+07 photons/s
- Total Flux (photons/s) (Balb-C mice; Group 1, no EP, 48 Hours): 1.24E+07 photons/s
- Total Flux (photons/s) (Balb-C mice; Group 1, no EP, 72 Hours): 5.69E+06 photons/s
- Total Flux (photons/s) (Balb-C mice; Group 1, no EP, 168 Hours): 1.48E+06 photons/s
- Total Flux (photons/s) (Balb-C mice; Group 1, no EP, 240 Hours): 6.50E+05 photons/s
- Total Flux (photons/s) (Balb-C mice; Group 1, no EP, 360 Hours): 1.86E+05 photons/s
- Total Flux (photons/s) (Balb-C mice; Group 1, no EP, 480 Hours): 6.65E+04 photons/s
- Total Flux (photons/s) (Balb-C mice; Group 2, with EP, 24 Hours): 8.27E+07 photons/s
- Total Flux (photons/s) (Balb-C mice; Group 2, with EP, 48 Hours): 7.06E+07 photons/s
- Total Flux (photons/s) (Balb-C mice; Group 2, with EP, 72 Hours): 6.50E+07 photons/s
- Total Flux (photons/s) (Balb-C mice; Group 2, with EP, 168 Hours): 1.81E+07 photons/s
- Total Flux (photons/s) (Balb-C mice; Group 2, with EP, 240 Hours): 1.44E+07 photons/s
- Total Flux (photons/s) (Balb-C mice; Group 2, with EP, 360 Hours): 3.98E+06 photons/s
- Total Flux (photons/s) (Balb-C mice; Group 2, with EP, 480 Hours): 1.47E+06 photons/s
- Total Flux (photons/s) (Balb-C mice; Group 2, with electroporation (EP), 3 Hours): 1.25E+07 photons/s

B1: G-CSF: modified mRNA encoding human G-CSF, SEQ ID NO: 4, Cap1, fully modified with 5-methylcytosine and pseudouridine; LNP-formulated in Examples 16-22 (nucleic acid)
chain: GGGAAAUAAGAGAGAAAAGAAGAGUAAGAAGAAAUAUAAGAGCCACCAUGGCCGGUCCCGCGACCCAAAGCCCCAUGAAACUUAUGGCCCUGCAGUUGCUGCUUUGGCACUCGGCCCUCUGGACAGUCCAAGAAGCGACUCCUCUCGGACCUGCCUCAUCGUUGCCGCAGUCAUUCCUUUUGAAGUGUCUGGAGCAGGUGCGAAAGAUUCAGGGCGAUGGAGCCGCACUCCAAGAGAAGCUCUGCGCGACAUACAAACUUUGCCAUCCCGAGGAGCUCGUACUGCUCGGGCACAGCUUGGGGAUUCCCUGGGCUCCUCUCUCGUCCUGUCCGUCGCAGGCUUUGCAGUUGGCAGGGUGCCUUUCCCAGCUCCACUCCGGUUUGUUCUUGUAUCAGGGACUGCUGCAAGCCCUUGAGGGAAUCUCGCCAGAAUUGGGCCCGACGCUGGACACGUUGCAGCUCGACGUGGCGGAUUUCGCAACAACCAUCUGGCAGCAGAUGGAGGAACUGGGGAUGGCACCCGCGCUGCAGCCCACGCAGGGGGCAAUGCCGGCCUUUGCGUCCGCGUUUCAGCGCAGGGCGGGUGGAGUCCUCGUAGCGAGCCACCUUCAAUCAUUUUUGGAAGUCUCGUACCGGGUGCUGAGACAUCUUGCGCAGCCGUGAAGCGCUGCCUUCUGCGGGGCUUGCCUUCUGGCCAUGCCCUUCUUCUCUCCCUUGCACCUGUACCUCUUGGUCUUUGAAUAAAGCCUGAGUAGGAAG
modifications: Cap1, 5-methylcytosine, pseudouridine
- increase in neutrophil count above control (mice [2]): four to five fold increase
- IFN-alpha / cytokine production (human PBMC): induced IFN-alpha, TNF-alpha and IP10
- protein translation and cytokine production [3]: most protein translation (G-CSF) and the least amount of cytokine
- Serum Concentration 8-12 hours after administration (mice [4]; IM, 100 ug): ~20 to 80 pg/mL
- Serum Concentration 8-12 hours after administration (mice [4]; IV (LNP), 1 ug): ~20,000 pg/ml
- Serum Concentration 8-12 hours after administration (mice [4]; IV (LNP), 10 ug): ~1,000,000 pg/ml
- Serum Concentration 8-12 hours after administration (mice [4]; IV (LNP), 100 ug): ~5,000,000 pg/ml
- Serum Concentration 8-12 hours after administration (mice [4]; IV (Lipoplex), 100 ug): ~30 pg/mL
- Serum Concentration 8-12 hours after administration (mice [4]; SC, 100 ug): ~10 to 40 pg/mL
- G-CSF Protein Expression, Conc (mice [4]; dose 10 ug): 1204.82 ng/mL
- G-CSF Protein Expression, Conc (mice [4]; dose 100 ug): 4722.20 ng/mL
- time to cytokine response (IFN-beta, IL-6) (BJ fibroblasts): 2 to 3 days
- IFN-beta (BJ fibroblasts; 6 hours): 0 pg/mL
- IL-6 (BJ fibroblasts; 6 hours): 3396 pg/mL
- IFN-beta (BJ fibroblasts; Day 1): 38 pg/mL
- IL-6 (BJ fibroblasts; Day 1): 3870 pg/mL
- IFN-beta (BJ fibroblasts; Day 2): 1125 pg/mL
- IL-6 (BJ fibroblasts; Day 2): 16341 pg/mL
- IFN-beta (BJ fibroblasts; Day 3): 100 pg/mL
- IL-6 (BJ fibroblasts; Day 3): 25983 pg/mL
- IFN-beta (BJ fibroblasts; Day 4): 75 pg/mL
- IL-6 (BJ fibroblasts; Day 4): 18922 pg/mL
- IFN-beta (BJ fibroblasts; Day 5): 213 pg/mL
- IL-6 (BJ fibroblasts; Day 5): 15928 pg/mL
